Source: US20060140858A1, “Drug pre-targeting by means of bi-specific antibodies and hapten constructs comprising a carrier peptide and the active agent(s)” (Immunomedics, Inc., priority 2002, published 2006)
Marks after values point to notes of the source that are not given here.

Experiments:
[1] = In-vitro stability of In/In-111 IMP 224, reverse phase HPLC; assay type: physicochemical
Method: Aliquots (0.15 mL, 370 μCi) were withdrawn and mixed with 0.9 mL 0.5 M citrate buffer pH 4.0, 0.9mL 0.5 M citrate buffer pH 5.0, and 0.9 mL 0.5 M phosphate buffer pH 7.5. The stability of the labeled peptide was followed by reverse phase HPLC. HPLC Conditions: Waters Radial-Pak C-18 Nova-Pak 8×100 mm, Flow Rate 3 mL/min, Gradient: 100% A=0.3.% NH4OAc to 100% B=90% CH3CN, 0.3% NH4OAc over 10 min.

[2] = In-vivo stability and clearance of IMP 224; parameters: species or system mouse
Method: Kits were reconstituted with 4 mCi In-111 in 0.5 mL water. The In-111 kit was incubated at room temperature for 10 min and then diluted with 0.5 mL of the cold indium containing 0.5 M pH 7.2 acetate buffer.

[3] = Pretargeting: I-125 F6 × 734-F(ab′)2, 72 h later In-111-IMP-224, biodistribution; details: female, mouse, in vivo, total radioactivity; for tissue to tissue ratio at 1 h / tissue to tissue ratio at 4 h / tissue to tissue ratio at 24 h: 10 uCi, tumor-to-normal organ ratio; for tissue uptake at 1 h / tissue uptake at 4 h / tissue uptake at 24 h: % ID/g tissue
GW-39 tumor xenografts = experiment: as above
[4] = nude (Taconic NCRNU), Blood, 1 h
[5] = nude (Taconic NCRNU), Blood, 4 h
[6] = nude (Taconic NCRNU), Blood, 24 h
[7] = nude (Taconic NCRNU), Kidney, 1 h
[8] = nude (Taconic NCRNU), Kidney, 4 h
[9] = nude (Taconic NCRNU), Kidney, 24 h
[10] = nude (Taconic NCRNU), Large Int., 1 h
[11] = nude (Taconic NCRNU), Large Int., 4 h
[12] = nude (Taconic NCRNU), Large Int., 24 h
[13] = nude (Taconic NCRNU), Lungs, 1 h
[14] = nude (Taconic NCRNU), Lungs, 4 h
[15] = nude (Taconic NCRNU), Lungs, 24 h
[16] = nude (Taconic NCRNU), Muscle, 1 h
[17] = nude (Taconic NCRNU), Small Int., 4 h
[18] = nude (Taconic NCRNU), Small Int., 24 h
[19] = nude (Taconic NCRNU), Stomach, 1 h
[20] = nude (Taconic NCRNU), Stomach, 4 h
[21] = nude (Taconic NCRNU), Stomach, 24 h

With `COc1cccc2c1C(=O)c1c(O)c3c(c(O)c1C2=O)C[C@@](O)(C(CO)=NNc1ccc(C(=O)N[C@@H](CCCCNC(=O)CN(CCN(CCN(CC(=O)O)CC(=O)O)CC(=O)O)CC(=O)O)C(=O)N[C@@H](Cc2ccc(O)cc2)C(=O)N[C@@H](CCCCNC(=O)CN(CCN(CCN(CC(=O)O)CC(=O)O)CC(=O)O)CC(=O)O)C(N)=O)cc1)C[C@@H]3O[C@H]1C[C@H](N)[C@H](O)[C@H](C)O1` [IMP 224, Dox = N—NH—C6H4—CO-Lys(DTPA)-Tyr-Lys(DTPA)-NH2] the “Intact Peptide” value ([1]; Kit, time cell empty (first line)) was 00, the “Intact Peptide” value ([1]; Kit, time printed '1 hr') was 9 and the “Intact Peptide” value ([1]; pH 4.0, time printed '4 min') was 00. The “Intact Peptide” value ([1]; pH 4.0, time printed '9 hr') was 5, the “Intact Peptide” value ([1]; pH 4.0, time printed 'hr', some peptide decomposed but not included in peak areas) was 00* and the “Intact Peptide” value ([1]; pH 5.0, time printed '0 min') was 00. For the same compound, the “Intact Peptide” value ([1]; pH 5.0, time printed '0 hr') was 1, the “Intact Peptide” value ([1]; pH 5.0, time printed 'hr', some peptide decomposed but not included in peak areas) was 00* and the “Intact Peptide” value ([1]; pH 7.5, time printed '0 hr') was 0. For the same compound, the “Intact Peptide” value ([1]; pH 7.5, time printed '.5 hr' (first line)) was 00, the “Intact Peptide” value ([1]; pH 7.5, time printed '.5 hr' (second line)) was 4 and the “Activity Recovered” value ([2]; Serum, 30 min, Animal #1) was 1.92 µCi. The “Activity Recovered” value ([2]; Serum, 30 min, Animal #2) was 3.64 µCi, the “Activity Recovered” value ([2]; Serum, 1 hr, Animal #1) was 1.21 µCi and the “Activity Recovered” value ([2]; Serum, 1 hr, Animal #2) was 1.27 µCi. The “Activity Recovered” value ([2]; Urine, 30 min, Animal #1) was 220 µCi, the “Activity Recovered” value ([2]; Urine, 30 min, Animal #2) was 133 µCi and the “Activity Recovered” value ([2]; Urine, 1 hr, Animal #1) was 41.1 µCi. The “Activity Recovered” value ([2]; Urine, 1 hr, Animal #2) was 273 µCi, the dose excreted ([2]; mouse, urine, 400 uCi, read-out: renal excretion) was ~100% and the “integrity of excreted peptide (reverse phase HPLC)” value ([2]; urine) was “excreted intact in the urine”. For the same compound, the “antibody binding of urine activity (size exclusion HPLC)” value ([2]; urine, 30 min and 1 hr) was “could still bind to the antibody”, the tissue to tissue ratio at 1 h ([3]; NCRNU nude, GW-39, 1 h) was 1 and the tissue to tissue ratio at 4 h ([3]; NCRNU nude, GW-39, 4 h) was 1. It also gave a tissue to tissue ratio at 24 h ([3]; NCRNU nude, GW-39, 24 h) of 1, a tissue to tissue ratio at 1 h ([3]; NCRNU nude, Liver, 1 h) of 24 ± 5.9 and a tissue to tissue ratio at 4 h ([3]; NCRNU nude, Liver, 4 h) of 35.4 ± 6.9. For the same compound, the tissue to tissue ratio at 24 h ([3]; NCRNU nude, Liver, 24 h) was 31.6 ± 5.8, the tissue to tissue ratio at 1 h ([3]; NCRNU nude, Tail, 1 h) was 9.4 ± 2.8 and the tissue to tissue ratio at 4 h ([3]; NCRNU nude, Tail, 4 h) was 26.4 ± 5.2. For the same compound, the tissue to tissue ratio at 24 h ([3]; NCRNU nude, Tail, 24 h) was 55.9 ± 5.7, the tissue to tissue ratio at 1 h ([3]; NCRNU nude, Urine, 1 h) was 0.3 ± 0.5 and the tissue to tissue ratio at 4 h ([3]; NCRNU nude, Urine, 4 h) was 0.71 ± 0.6. It also gave a tissue to tissue ratio at 24 h ([3]; NCRNU nude, Urine, 24 h) of 8.3 ± 1.3, a tissue to tissue ratio at 1 h [3, 4] of 6.1 ± 2.5 and a tissue to tissue ratio at 4 h [3, 5] of 12.8 ± 2. It also gave a tissue to tissue ratio at 24 h [3, 6] of 41.8 ± 6.3, a tissue to tissue ratio at 1 h [3, 7] of 3 ± 0.5 and a tissue to tissue ratio at 4 h [3, 8] of 3.9 ± 0.5. The tissue to tissue ratio at 24 h [3, 9] was 5 ± 0.5, the tissue to tissue ratio at 1 h [3, 10] was 87.1 ± 35 and the tissue to tissue ratio at 4 h [3, 11] was 45.6 ± 19. The tissue to tissue ratio at 24 h [3, 12] was 92.4 ± 38, the tissue to tissue ratio at 1 h [3, 13] was 13.4 ± 2.7 and the tissue to tissue ratio at 4 h [3, 14] was 30.1 ± 4.9. The tissue to tissue ratio at 24 h [3, 15] was 69 ± 9.4, the tissue to tissue ratio at 1 h [3, 16] was 38.6 ± 13 and the tissue to tissue ratio at 4 h ([3]; nude (Taconic NCRNU), Muscle, 4 h) was 727 ± 797. For the same compound, the tissue to tissue ratio at 24 h ([3]; nude (Taconic NCRNU), Muscle, 24 h) was 283 ± 46, the tissue to tissue ratio at 4 h [3, 17] was 51.6 ± 14 and the tissue to tissue ratio at 24 h [3, 18] was 110 ± 13. The tissue to tissue ratio at 1 h ([3]; nude (Taconic NCRNU), Spleen, 1 h) was 28.7 ± 8.7, the tissue to tissue ratio at 4 h ([3]; nude (Taconic NCRNU), Spleen, 4 h) was 44.7 ± 10 and the tissue to tissue ratio at 24 h ([3]; nude (Taconic NCRNU), Spleen, 24 h) was 47 ± 2.2. For the same compound, the tissue to tissue ratio at 1 h [3, 19] was 48.7 ± 37, the tissue to tissue ratio at 4 h [3, 20] was 128 ± 46 and the tissue to tissue ratio at 24 h [3, 21] was 147 ± 39. The tissue uptake at 1 h [3, 4] was 1.8 ± 0.6 %ID/g, the tissue uptake at 4 h [3, 5] was 0.9 ± 0.2 %ID/g and the tissue uptake at 24 h [3, 6] was 0.2 %ID/g. The tissue uptake at 1 h [3, 7] was 3.5 ± 0.6 %ID/g, the tissue uptake at 4 h [3, 8] was 2.8 ± 0.3 %ID/g and the tissue uptake at 24 h [3, 9] was 1.9 ± 0.2 %ID/g. The tissue uptake at 1 h [3, 10] was 0.1 %ID/g, the tissue uptake at 4 h [3, 11] was 0.3 ± 0.1 %ID/g and the tissue uptake at 24 h [3, 12] was 0.1 ± 0.1 %ID/g. It also gave a tissue uptake at 1 h [3, 13] of 0.8 ± 0.2 %ID/g, a tissue uptake at 4 h [3, 14] of 0.4 %ID/g and a tissue uptake at 24 h [3, 15] of 0.1 %ID/g. The tissue uptake at 1 h [3, 16] was 0.3 ± 0.2 %ID/g, the tissue uptake at 1 h ([3]; nude (Taconic NCRNU), Small Int., 1 h) was 0.5 ± 0.4 %ID/g and the tissue uptake at 4 h [3, 17] was 0.2 %ID/g. For the same compound, the tissue uptake at 24 h [3, 18] was 0.1 %ID/g, the tissue uptake at 1 h [3, 19] was 0.8 ± 1.3 %ID/g and the tissue uptake at 4 h [3, 20] was 0.1 %ID/g. For the same compound, the tissue uptake at 24 h [3, 21] was 0.1 %ID/g, the “% ID/g tissue” value (GW-39 tumor xenografts; GW-39, 1 h) was 10.3 ± 1.7 % ID/g and the “% ID/g tissue” value (GW-39 tumor xenografts; GW-39, 4 h) was 11.0 ± 2.0 % ID/g. For the same compound, the “% ID/g tissue” value (GW-39 tumor xenografts; GW-39, 24 h) was 9.7 ± 1.1 % ID/g, the “% ID/g tissue” value (GW-39 tumor xenografts; Liver, 1 h) was 0.4 ± 0.1 % ID/g and the “% ID/g tissue” value (GW-39 tumor xenografts; Liver, 4 h) was 0.3 ± 0.0 % ID/g. The “% ID/g tissue” value (GW-39 tumor xenografts; Liver, 24 h) was 0.3 ± 0.0 % ID/g, the “% ID/g tissue” value (GW-39 tumor xenografts; Muscle, 4 h) was 0.0 ± 0.0 % ID/g and the “% ID/g tissue” value (GW-39 tumor xenografts; Muscle, 24 h) was 0.0 ± 0.0 % ID/g. The tumor-to-normal organ ratio (GW-39 tumor xenografts; Small Int., 1 h) was 31.9 ± 18, the “% ID/g tissue” value (GW-39 tumor xenografts; Spleen, 1 h) was 0.4 ± 0.1 % ID/g and the “% ID/g tissue” value (GW-39 tumor xenografts; Spleen, 4 h) was 0.2 ± 0.0 % ID/g. For the same compound, the “% ID/g tissue” value (GW-39 tumor xenografts; Spleen, 24 h) was 0.2 ± 0.0 % ID/g, the “% ID/g tissue” value (GW-39 tumor xenografts; Tail, 1 h) was 1.1 ± 0.2 % ID/g and the “% ID/g tissue” value (GW-39 tumor xenografts; Tail, 4 h) was 0.4 ± 0.1 % ID/g. For the same compound, the “% ID/g tissue” value (GW-39 tumor xenografts; Tail, 24 h) was 0.2 ± 0.0 % ID/g, the “% ID/g tissue” value (GW-39 tumor xenografts; Urine, 1 h) was 168 ± 106 % ID/g and the “% ID/g tissue” value (GW-39 tumor xenografts; Urine, 4 h) was 31.8 ± 31 % ID/g. For the same compound, the “% ID/g tissue” value (GW-39 tumor xenografts; Urine, 24 h) was 1.2 ± 0.2 % ID/g.
